Measurements as given in patent US20240309052A1.

Experiments:
[1] = molecular target: recombinant mouse CD96-his (788806; Biolegend) (mouse) (UniProt Q3U0X8); experiment: SPR (Biacore T200), single-cycle kinetics, mCD96-his captured by anti-His, 1:1 Langmuir fit
[2] = molecular target: recombinant mouse CD226-his (50232-M08H; SinoBiological) (mouse) (UniProt Q8K4F0); experiment: SPR (Biacore T200), single-cycle kinetics, mCD226-his captured by anti-His, 1:1 Langmuir fit
[3] = molecular target: recombinant mouse TIGIT-Fc-his (771808; Biolegend) (mouse) (UniProt P86176); experiment: SPR (Biacore T200), single-cycle kinetics, mTIGIT-Fc-his captured by anti-His, 1:1 Langmuir fit
Sequence of UniProt P86176 (P86176 29-148 limits assumed): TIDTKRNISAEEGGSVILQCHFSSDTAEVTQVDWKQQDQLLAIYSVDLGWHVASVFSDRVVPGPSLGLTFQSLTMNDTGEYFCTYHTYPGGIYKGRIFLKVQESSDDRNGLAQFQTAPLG

Sequence of UniProt Q3U0X8 (Q3U0X8 22-536 limits assumed): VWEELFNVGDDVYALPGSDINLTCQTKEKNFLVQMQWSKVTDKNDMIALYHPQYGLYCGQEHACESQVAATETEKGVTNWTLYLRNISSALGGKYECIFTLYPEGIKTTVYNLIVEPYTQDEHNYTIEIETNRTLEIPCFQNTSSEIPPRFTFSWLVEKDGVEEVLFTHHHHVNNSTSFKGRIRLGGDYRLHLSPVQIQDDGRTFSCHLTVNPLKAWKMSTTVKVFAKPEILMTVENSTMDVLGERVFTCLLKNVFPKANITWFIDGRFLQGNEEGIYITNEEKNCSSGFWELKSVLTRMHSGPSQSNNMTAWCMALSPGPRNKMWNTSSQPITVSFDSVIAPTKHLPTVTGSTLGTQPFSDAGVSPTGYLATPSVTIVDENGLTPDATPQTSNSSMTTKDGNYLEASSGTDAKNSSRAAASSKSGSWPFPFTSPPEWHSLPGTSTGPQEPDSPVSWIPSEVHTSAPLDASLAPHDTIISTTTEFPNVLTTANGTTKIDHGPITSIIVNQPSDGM
Sequence of UniProt Q8K4F0 (Q8K4F0 19-254 limits assumed, stated change not applied): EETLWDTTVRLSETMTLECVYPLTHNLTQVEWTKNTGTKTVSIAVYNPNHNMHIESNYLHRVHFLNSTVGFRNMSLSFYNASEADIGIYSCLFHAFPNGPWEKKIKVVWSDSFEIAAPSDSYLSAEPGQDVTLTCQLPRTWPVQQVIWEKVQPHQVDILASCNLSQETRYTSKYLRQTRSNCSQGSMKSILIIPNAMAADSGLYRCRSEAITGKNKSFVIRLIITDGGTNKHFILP

Kd [1]: 4.07 nM | koff [1]: 0.00455 s⁻¹ | kon [1]: 1.17e+06 M⁻¹ s⁻¹ | Kd [2]: 0.83 nM | Kd [3]: 2.26 nM | koff [3]: 0.0646 s⁻¹ | kon [3]: 2.25e+07 M⁻¹ s⁻¹
Substance: PVR-Fc (786608; Biolegend), full-length mouse PVR ECD-Fc (Fc fusion)
